Measured values published in the RNAGym collection of RNA variant scans (doi:10.1073/pnas.2313332121).
Variants at the floor of the assay were thinned out.

B1: TPR 5TU (parent)
chain: GGAUCUUCUCGAUCUAACAAAAAAGACAAAUCUGCCACAAAGCUUGAGAGCAUCUUCGGAUGCAGAGGCGGCAGCCUUCGGUGGCGCGAUAGCGCCAACGUUCUCAACUAUGACACGCAAAACGCGUGCUCCGUUGAAUGGAGUUUAUCAUG

Variants of: B1
Assay: polymerase ribozyme fitness, log enrichment relative to wild type (log ratio); higher = more active; in vitro selection for triplet polymerase activity
Summary of the method: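 Mutant libraries of each subunit of a heterodimeric triplet polymerase ribozyme were built by PCR and transcribed. Each library went through one round of in vitro selection in triplicate: annealing with biotinylated primer, partner subunit and triplets, frozen incubation at −7 °C, gel excision of extended constructs, streptavidin-bead capture and RT-PCR. Input and output libraries were Illumina-sequenced; only genotypes with ≥10 input reads and ≥1 read per output were kept. Fitness is log2(genotype enrichment/wild-type enrichment), using inverse-variance-weighted replicate averages.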

Variant | polymerase ribozyme fitness (log ratio)
A49U C75U U102G | -2.65
A49C G58A | -4.08
A47G C51U C75U C96A C103U A138G A147C | ≤ -4.2
G50A A66G C85A A106G G140C | ≤ -4.2
A49C C96U | -3.23
A47U U61A C118U | -2.01
A47G U55A G71U C85G C95U | ≤ -4.2
A47C U56C C93U A106C | -4.09
A47U G94A | -0.308
A49C A52G U78C C93G U146C | ≤ -4.2
A49G A91G G92U A138U U144C | ≤ -4.2
A47G G152U | -2.47
G50A C116U A121U C132U U144G | -1.82
A49C A60G | -3.61
G48C A89U A106U A107C A120G U139G | ≤ -4.2
G48U G74A C85G A115C U134A | ≤ -4.2
A49C C57U A60G C76U C118A | ≤ -4.2
A49C G50U A64C A73U C87A A115G C118G | ≤ -4.2
G48C G50A G81U C95A U146G | -3.35
A47C G88U | -3.96
A47C G83A | -2.37
A47U U61G U134A | -3.8
A49C A106U | -3.68
G50A G92C | -3.26

Variant | polymerase ribozyme fitness (log ratio)
A49C G88U A106U | ≤ -4.2
G50A G65A U102C | -4.1
G50A A122U A137G | -2.6
A49G C57U | -0.525
G50A G58U C95U C118G | -1.92
A47G G81C | 0.162
A47C G81C C87G C96U | ≤ -4.2
A47G U53C U134G | -3.45
A49C A52G G81A C87U U102C C114G A150G | ≤ -4.2
G50A G88A | ≤ -4.2
G48C U61A C93U U151A | ≤ -4.2
A47G U145G | -0.0566
A49C C87G | ≤ -4.2
A49U U55A | -1.02
A49U C93A C103U A119U | ≤ -4.2
G48A C79U | -3.91
A47U A97G C132U | -2.35
G48U G86C | -3.31
A47G G94U A147G | ≤ -4.2
G48A A52G | 0.139
A49C U61A G86A A89U A138U | ≤ -4.2
A49C G70U A97U A107G G128U G136A U139A | ≤ -4.2
G48U C95U | -1.01
A47C U104G | -0.804

Variant | polymerase ribozyme fitness (log ratio)
A49G C87G | -4.02
G48C G58C C99G | ≤ -4.2
A47C G117A | 0.357
G50A U56A G62C C63A C96G | ≤ -4.2
A49U G50U C125U | -1.77
G50A A52G | -1.15
G48A C75G U78C | ≤ -4.2
A47G C85A C93A A98C A121U | -4.11
A49G C87A G126A | ≤ -4.2
G48U U135C G143C | -3.78
A47G G65C A106G A120G | -4.14
G50A C87U C99U U146A | -3.96
A49C C54A | ≤ -4.2
A47U G71C G83A C118U | ≤ -4.2
A49U A138U | ≤ -4.2
G48U C85A U144C | -2.1
A47G G59C G62U G83A C87U U101G A138U | ≤ -4.2
A47C U104G G124U | -0.000534
A49G A60U U78C C95A A142C | ≤ -4.2
A49C A73G U90C C149U | ≤ -4.2
A49C C76G C95U C114A G143U | ≤ -4.2
G50A U134C | -1.29
G50A A52C C57G C93U | -3.12
G50A C54U | -1.32

Variant | polymerase ribozyme fitness (log ratio)
A49C G58C A106C U109A C114A | ≤ -4.2
A49U G59U | -0.317
A47C G83A A122C | -1.08
G48C A52C C85G G92C A119U G126A A138U | ≤ -4.2
G48U A49U A98G C116G G133U | ≤ -4.2
A49C A52U C132G | ≤ -4.2
A47G U102A | -0.825
A47G G50U C85G | -3.89
G50A U53A | -1.59
G50A G58A U78A G94A G141U | ≤ -4.2
A49G A52G U55C G84A A91C C99G U101G | ≤ -4.2
A47U G48U U55A U82G U134C | -3.1
A47C U82G A110G | -3.62
G50A C54G C116U | -2.17
A49C G50U U53G G81C C87U A89C A106U A150C | ≤ -4.2
G50A C95G A115U | ≤ -4.2
G50A U145A | -0.516
A47U G50A C129U | -3.09
G50C A66C C79G C93U C95U U139C A147U | ≤ -4.2
G48A U53C G92C C95U A98C | -1.65
A47G A73U | -1.81
A47U G68A U82A A97G | ≤ -4.2
A47G A49C U104G | ≤ -4.2
A47C U53C C95A U104G A119U G136U | -3.11

Variant | polymerase ribozyme fitness (log ratio)
G50C A52G G62A G74U G86C C116U | ≤ -4.2
G50A C116U | -1.34
A49U C51U C79A A120G C123A | ≤ -4.2
G48A C85U | -2.1
G48A C85A | -2.56
A47U G58U G84A C93G U148A | ≤ -4.2
G48C A49C | -3.92
A49C C54U C69A G94A U151C | ≤ -4.2
A47C U56G C85G C118U A121U U144G | -1.81
A49U U56A C75U C108A U111G U146G | ≤ -4.2
A49U U61G C93A C108G C114A U134A C149G | ≤ -4.2
A47G G88A C96U A120G G143A | ≤ -4.2
G50A C118G | -2.21
G48A A52C C105U C108U A137C | ≤ -4.2
A49C C103A U139A | ≤ -4.2
G50A G71C A91U A150U | ≤ -4.2
G50A G83C U144A | -2.07
G48A A113C U134C A137C G140A U148G | ≤ -4.2
A49C C75A G86U G143C | -4.19
A47U G83A U101C G117U | -0.198
G50A A106C | -2.72
A47G G58C C93A U101G | -3.96
A49G C51G U53G C79U C118U | ≤ -4.2
G50C A52G U53A G81C U82G G88U C105G A150G | ≤ -4.2

Variant | polymerase ribozyme fitness (log ratio)
A47U U82G G84A A97G U102G G136C | ≤ -4.2
G48U C85U G117U A122U | 0.609
G50A G74U G83A C85G G126U C149A | ≤ -4.2
G50A C96U C125G | -2.14
G48C G84A | -3.2
A47G C93U | -0.775
A47C U56A C85U | -0.721
G50A C93A | -3.33
G48C C57A C72G | ≤ -4.2
A47U G59A C96G | -1.05
G48A G81U G92U C118A G152C | ≤ -4.2
A49C C76A C93U A113G G117A | ≤ -4.2
G48A G117U | -0.676
A49C C99U U102G U109A | -2.46
G50C A98U | -2.38
A47G C69U | -1.14
A47G C69G | -1.95
G48A G70A U78G G84U G143U | ≤ -4.2
A47U G59A G124U | -0.07
A47G G48A G70A U77G C95U C108G A122U | ≤ -4.2
G48C G62A | -3.59
A49C C96A U102G G141U | 0.794
G48A C54G C57U G81A C95U A115U C131A U146G G152U | ≤ -4.2
A49C G50C G71A U90C C93G G117U C123G | ≤ -4.2

Variant | polymerase ribozyme fitness (log ratio)
A49C C54U G84A C103U C116G U130G | ≤ -4.2
A49U A52U A89G A98G | -3.98
G48A A97G | -0.198
G50A A150G | -3.11
G48C C75G C87G A91C C103G U134G U135C | ≤ -4.2
A49C C54G C79U G88A C95G | ≤ -4.2
A47C U56A U144C U151G | ≤ -4.2
A47G G50C U53A A97U G124C | ≤ -4.2
G50A U55G G67C G80U C85G C105U A138U | ≤ -4.2
A49C C99U | ≤ -4.2
G48A U55G C85G C87G C149G | ≤ -4.2
G50A C99A U145A | -3.7
A49U A91G U130A A138U | ≤ -4.2
A49G G50C | -2.28
A47U U53A G133C | -2.66
G48U C93A | -2.5
A47U C93A | -2.17
G48A U53A C85U C118U | -2.36
G50A G71A C95U U139A | ≤ -4.2
A47G C85U | -1.36
A49C G83C U90C A122G | ≤ -4.2
G48U C118A | -0.303
G50C A52C C79A C116G C125G C132G | ≤ -4.2
